Residue numbers refer to the chain shown, from its start.
B1: mu-128 (antibody, V domains shown)
VH: DVQLVESGGGLVQPGGSRKVSCAASGFTFSSFGMHWVRQAPEKGLEWVAYISRGSSTIYYADTVKGRFTISRDNPKNTLFLQMTSLRSEDTAMYYCARSGYGSSSYYFDYWGQGTTLTVSS
VL: ENVLTQSPAIMSASPREKVTMTCRASSSIRSSYLHWYQQKSGASPKLWIYSTSNLASGVPARFSGSGSGTSYSLTISSVEAEDAATYYCQQFSGYPLTFGGGTKLEIK
B2: mu-131 (antibody, V domains shown)
VH: EVQLQQSGPELVKPGASVKMSCKASGYTFTNYVMHWVKQKPGQGLEWIGYFNPYNDGTNYNEKFKGKATLTSDKSSNTAYMELSSLTSEDSAVYYCARGGVRRYFDVWGAGTTVTVSS
VL: DIQMTQSPSSLSASLGERVSLTCRASQDIGSNLNWLQLGPDGTIKRLIYATFSLDSGVPKRFSGSRSGSDYSLTISSLESEDFVDYYCQQYANFPPTFGGGTKLEIK
B3: mu-105 (antibody, V domains shown)
VH: EVQLQQSGPELVKPGASVKMSCKASGYTFTDYYMNWVKQSHGKSLEWIGYIYPNNGGTGYNQRFKGKATLTADKSSSTAYMELRSLTSEDSAVYYCARWGGTRLGYYAMDYWGQGTSVTVSS
VL: DIVMTQSQKFMSTSVGDRVSVTCKASQNVGTNVVWYQQKPGQSPKLLIYWASTRHTGVPDRFTGSGSGTDFTLTISNVQSEDLADYFCQQYSRYPYTFGGGTKLEIK
B4: mu-89 (antibody, V domains shown)
VH: EVQLVESGGDLVKPGGSLKLSCAASGFTFSSYGMSWVRQTPDKRLEWVATISSGGSYTYYPDSVKGRFTFSRDNAKNTLYLQMSSLKSEDTAMYYCVRQALRYHMDSWGQGTSVTVSS
VL: B3 VL with V34A, L46A, W50S, T53Y, H55Y, T56S, Y86F, S92Y, R93S, Y96W

These binders were tested against human GPRC5D protein (human) (UniProt Q9NZD1) (assay: FACS, subclone culture supernatant on NCI-H929 cells (medium alone: MFI 8242)).
Chain of human GPRC5D protein (human) (Q9NZD1 whole entry): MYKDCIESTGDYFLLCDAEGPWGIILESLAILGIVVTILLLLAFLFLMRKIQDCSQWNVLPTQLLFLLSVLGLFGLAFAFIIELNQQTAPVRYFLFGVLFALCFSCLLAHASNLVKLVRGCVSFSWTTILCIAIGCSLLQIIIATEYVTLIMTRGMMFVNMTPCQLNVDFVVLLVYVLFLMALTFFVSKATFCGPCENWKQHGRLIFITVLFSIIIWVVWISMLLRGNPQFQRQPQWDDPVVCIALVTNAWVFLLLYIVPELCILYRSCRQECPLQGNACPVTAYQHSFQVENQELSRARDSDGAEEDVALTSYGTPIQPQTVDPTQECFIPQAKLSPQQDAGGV
An MFI of 15700 was found for B1 in this work. An MFI of 12800 was found for B2 in this work. An MFI of 13200 was found for B3 in this work. An MFI of 11900 was found for B4 in this work.

— patent US20260226168A1
